From patent publication US20190309072A1 (CYTOMX THERAPEUTICS, published 2019)

B1: VM2 chimera (antibody, V domains shown)
VH: EVQLQESGAELVKPGTSVRLSCKASGYTFTEYIIHWVKQRSGQGLEWIGWFYPESGSVKYNETFKGRATLTADKSSSTVYMELSRLTSEDSAVYFCARHEERDYYGYYAMDYWGQGTSVTVSS
VL: DIVMTQTPTTLAASPGEKIIITCSASSSISSNYLHWYQQKPGFSPKLLIYRTSNLASGVPARFSGSGSGTSYSLTIGTMEAEDVATYYCQQGSSIPRFTSGSGTKLEIK
notes: Chimera of the mouse VM2 variable domains; also called VM2 chimera anti-ITGa3 antibody
B2: anti-ITGa3 huVM2 Hc2T62G/Lc1 antibody (antibody, human IgG1, kappa)
heavy: not shown
light: DIQMTQSPSSLSASVGDRVTITCSASSSISSNYLHWYQQKPGKVPKLLIYRTSNLASGVPSRFSGSGSGTDYTLTISSLQPEDVATYYCQQGSSIPRFTSGGGTKVEIKRTVAAPSVFIFPPSDEQLKSGTASVVCLLNNFYPREAKVQWKVDNALQSGNSQESVTEQDSKDSTYSLSSTLTLSKADYEKHKVYACEVTHQGLSSPVTKSFNRGEC
notes: also called ITGa3 Ab; ITGA3-Ab
B3: anti-ITGa3 huVM2 Hc2T62G/Lc1 antibody conjugated to vc-MMAD (antibody, human IgG1, kappa)
heavy: not shown
light: DIQMTQSPSSLSASVGDRVTITCSASSSISSNYLHWYQQKPGKVPKLLIYRTSNLASGVPSRFSGSGSGTDYTLTISSLQPEDVATYYCQQGSSIPRFTSGGGTKVEIKRTVAAPSVFIFPPSDEQLKSGTASVVCLLNNFYPREAKVQWKVDNALQSGNSQESVTEQDSKDSTYSLSSTLTLSKADYEKHKVYACEVTHQGLSSPVTKSFNRGEC
modifications: vc-MMAD conjugated to the antibody; chain and residues of attachment not stated
notes: Antibody drug conjugate of m29; also called ITGa3 Ab-MMAD; huVM2 Hc2T62G-MMAD ADC
B4: anti-ITGA3 Hc2T62G-570-2001 (antibody)
heavy: not shown
light: QGQSGQGECKTRQDFEMHDCVYGGGSSGGSISSGLLSGRSDNHGGGSDIQMTQSPSSLSASVGDRVTITCSASSSISSNYLHWYQQKPGKVPKLLIYRTSNLASGVPSRFSGSGSGTDYTLTISSLQPEDVATYYCQQGSSIPRFTSGGGTKVEIKRTVAAPSVFIFPPSDEQLKSGTASVVCLLNNFYPREAKVQWKVDNALQSGNSQESVTEQDSKDSTYSLSSTLTLSKADYEKHKVYACEVTHQGLSSPVTKSFNRGEC
notes: also called ITGa3-ActAb; ITGa3 ActAb
B5: anti-ITGA3 Hc2T62G-570-2001 conjugated to vc-MMAD (antibody, human IgG1, kappa)
heavy: not shown
light: QGQSGQGECKTRQDFEMHDCVYGGGSSGGSISSGLLSGRSDNHGGGSDIQMTQSPSSLSASVGDRVTITCSASSSISSNYLHWYQQKPGKVPKLLIYRTSNLASGVPSRFSGSGSGTDYTLTISSLQPEDVATYYCQQGSSIPRFTSGGGTKVEIKRTVAAPSVFIFPPSDEQLKSGTASVVCLLNNFYPREAKVQWKVDNALQSGNSQESVTEQDSKDSTYSLSSTLTLSKADYEKHKVYACEVTHQGLSSPVTKSFNRGEC
modifications: vc-MMAD conjugated to the antibody; chain and residues of attachment not stated
notes: also called ITGa3 570-2001-MMAD; ITGa3-570-2001-MMAD

What was measured:
[1] = target: T1, human ITGa3 on human-derived cell lines (human, UniProt P26006 33-1051); test: FACS on H292 cells; goat anti-human IgG Alexa Fluor 647 secondary; used for comparison
T1 construct: whole, on cells; also called ITGa3 on H292 cells
T1 sequence (looked up): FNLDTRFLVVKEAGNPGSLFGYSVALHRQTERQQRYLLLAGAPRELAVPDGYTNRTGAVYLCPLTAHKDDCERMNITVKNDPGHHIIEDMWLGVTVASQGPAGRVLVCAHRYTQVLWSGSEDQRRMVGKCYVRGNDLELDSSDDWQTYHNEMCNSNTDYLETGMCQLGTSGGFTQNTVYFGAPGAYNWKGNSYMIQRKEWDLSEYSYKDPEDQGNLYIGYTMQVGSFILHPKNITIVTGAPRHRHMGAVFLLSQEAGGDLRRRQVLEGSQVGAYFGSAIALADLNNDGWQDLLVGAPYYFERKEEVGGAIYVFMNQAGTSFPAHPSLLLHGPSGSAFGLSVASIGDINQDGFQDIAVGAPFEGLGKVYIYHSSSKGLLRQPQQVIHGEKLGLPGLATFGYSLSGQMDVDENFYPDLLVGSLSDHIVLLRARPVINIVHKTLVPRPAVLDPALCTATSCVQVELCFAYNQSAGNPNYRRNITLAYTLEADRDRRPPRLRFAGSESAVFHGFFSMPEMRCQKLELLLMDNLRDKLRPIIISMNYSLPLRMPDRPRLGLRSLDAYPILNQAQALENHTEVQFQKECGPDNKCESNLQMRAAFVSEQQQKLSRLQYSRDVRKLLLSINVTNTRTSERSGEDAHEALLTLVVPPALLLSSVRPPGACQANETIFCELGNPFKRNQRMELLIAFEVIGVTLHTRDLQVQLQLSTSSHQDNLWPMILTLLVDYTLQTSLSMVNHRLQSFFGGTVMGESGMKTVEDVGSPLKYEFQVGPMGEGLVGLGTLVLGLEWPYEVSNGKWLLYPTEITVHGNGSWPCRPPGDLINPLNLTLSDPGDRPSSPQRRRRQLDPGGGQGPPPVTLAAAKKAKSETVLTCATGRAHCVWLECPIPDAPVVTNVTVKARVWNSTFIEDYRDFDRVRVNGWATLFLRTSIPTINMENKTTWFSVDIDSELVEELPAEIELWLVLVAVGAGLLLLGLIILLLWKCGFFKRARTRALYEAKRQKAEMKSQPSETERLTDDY
Description: […], the binding of activatable anti-ITGa3 antibodies of the present disclosure comprising the VH of SEQ ID NO: 7, a VL selected from the VL of SEQ ID NO: 11 and the VL of SEQ ID NO: 12, with a masking moiety selected from the 570 masking moiety (SEQ ID NO: 22) and the 574 masking moiety (SEQ ID NO: 26), and the CM1 substrate comprising the sequence […] (SEQ ID NO: 232) to the H292 cell line was evaluated using a cell-binding FACS assay. The VM2 chimera (VH of SEQ ID NO: 1 and VL of SEQ ID NO: 2) was used for comparison. Using a standard labeling protocol for FACS, cells were labeled with anti-ITGa3 antibody or anti-ITGa3 activatable antibody of the present disclosure at the indicated concentrations, and the bound antibody was detected with a goat anti-human IgG Alexa Fluor 647 secondary antibody.

[2] = target: T1, human ITGa3 on human-derived cell lines; test: FACS on FaDu cells; apparent Kd from binding curve
Description: (§1) In this study, the binding of the antibodies of the present disclosure to the indicated cell lines were performed using a standard FACS labelling method.

[3] = target: T1, human ITGa3 on human-derived cell lines; test: FACS on HT29 cells; apparent Kd from binding curve
Description: as §1

[4] = target: T1, human ITGa3 on human-derived cell lines; test: FACS on BxPC3 cells; apparent Kd from binding curve
Description: as §1

[5] = target: T1, human ITGa3 on human-derived cell lines; test: FACS on MDA MB231 cells; apparent Kd from binding curve
Description: as §1

[6] = target: T2, mouse ITGa3 on mouse-derived Renca renal carcinoma cells (mouse, UniProt Q62470 33-1053); test: FACS on Renca cells; goat anti-human IgG Alexa Fluor 647 secondary
T2 construct: whole, on cells
T2 sequence (looked up): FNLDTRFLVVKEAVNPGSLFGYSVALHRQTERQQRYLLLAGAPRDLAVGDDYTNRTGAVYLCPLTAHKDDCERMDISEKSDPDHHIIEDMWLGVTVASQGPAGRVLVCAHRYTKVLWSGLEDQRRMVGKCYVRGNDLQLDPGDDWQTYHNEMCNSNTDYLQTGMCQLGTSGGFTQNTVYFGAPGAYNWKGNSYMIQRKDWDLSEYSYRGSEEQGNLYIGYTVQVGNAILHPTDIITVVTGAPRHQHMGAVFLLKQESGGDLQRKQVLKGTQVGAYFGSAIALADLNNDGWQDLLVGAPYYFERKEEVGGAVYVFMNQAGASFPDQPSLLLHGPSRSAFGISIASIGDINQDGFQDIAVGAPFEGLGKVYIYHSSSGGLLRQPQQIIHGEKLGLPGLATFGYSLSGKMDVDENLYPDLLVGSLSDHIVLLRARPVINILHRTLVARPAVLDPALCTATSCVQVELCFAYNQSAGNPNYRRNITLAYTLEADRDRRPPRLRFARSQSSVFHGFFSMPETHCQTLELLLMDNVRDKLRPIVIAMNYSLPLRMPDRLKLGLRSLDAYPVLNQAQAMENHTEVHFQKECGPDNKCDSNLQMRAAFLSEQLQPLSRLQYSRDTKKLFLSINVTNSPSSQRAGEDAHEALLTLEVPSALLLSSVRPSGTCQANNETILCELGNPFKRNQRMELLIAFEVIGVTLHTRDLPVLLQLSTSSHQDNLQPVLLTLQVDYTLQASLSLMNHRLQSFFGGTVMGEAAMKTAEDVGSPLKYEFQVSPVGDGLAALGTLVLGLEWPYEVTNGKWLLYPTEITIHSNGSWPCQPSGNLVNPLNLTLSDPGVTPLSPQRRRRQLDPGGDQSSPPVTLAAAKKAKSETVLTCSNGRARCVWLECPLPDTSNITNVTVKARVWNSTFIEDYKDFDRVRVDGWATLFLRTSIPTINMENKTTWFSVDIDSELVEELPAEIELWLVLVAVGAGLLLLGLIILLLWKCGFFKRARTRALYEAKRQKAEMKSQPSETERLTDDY

[7] = target: T1, human ITGa3 on human-derived cell lines; test: FACS on MDA MB 231 cells (FIG. 17B); apparent Kd from binding curve
Description: In this study, the binding of the antibodies of the present disclosure to the indicated cell lines were performed using a standard FACS labelling method. Briefly, in FIG. 17A cells were labeled with the indicated antibodies of the present disclosure: anti-human ITGa3 antibody drug conjugate (anti-ITGa3 huVM2 Hc2/Lc1-spdb-DM4, “ITGa-DM4”) or an anti-human ITGa3 activatable antibody drug conjugate (anti-ITGA3 Hc2-570-2001-spdb-DM4, “ITGA3-570-2001-DM4”), where the anti-ITGa3 AADC was used with and without activation by a protease that recognized the substrate sequence. In FIG. 17B cells were labeled with the indicated antibodies of the present disclosure: anti-human ITGa3 antibody (anti-ITGa3 huVM2 Hc2T62G/Lc1 antibody, “ITGa3 Ab”) or an anti-human ITGa3 activatable antibody (anti-ITGA3 Hc2T62G-570-2001, “ITGA3-570-2001; anti-ITGA3 Hc2T62G-2331-3001, “ITGA3-2331-3001”) and their corresponding AADCs conjugated to vc-MMAD at the indicated concentrations and subsequently detected with an Alexa Fluor 647 labeled goat anti-human IgG secondary antibody.

[8] = target: T1, human ITGa3 on human-derived cell lines; test: FACS on FaDu cells; shift of the ActAb Kd against the ITGa3 Ab Kd
Description: as §1

[9] = target: T1, human ITGa3 on human-derived cell lines; test: FACS on HT29 cells; shift of the ActAb Kd against the ITGa3 Ab Kd
Description: as §1

[10] = target: T1, human ITGa3 on human-derived cell lines; test: FACS on BxPC3 cells; shift of the ActAb Kd against the ITGa3 Ab Kd
Description: as §1

[11] = target: T1, human ITGa3 on human-derived cell lines; test: FACS on MDA MB231 cells; shift of the ActAb Kd against the ITGa3 Ab Kd
Description: as §1

Row | Binder | Kd [2] | Kd [3] | Kd [4] | Kd [5] | Kd [7] | further results
1 | B1 | – | – | – | – | – | binding result [1]: binds
2 | B2 | 0.32 nM | 0.24 nM | 0.77 nM | 0.91 nM | 0.906 nM | binding result [6]: no binding
3 | B3 | – | – | – | – | 1.08 nM | –
4 | B4 | 4.58 nM | 6.03 nM | 7.39 nM | 7.42 nM | 18 nM | Apparent Masking Efficiency [8]: 14 fold; Apparent Masking Efficiency [9]: 25 fold; Apparent Masking Efficiency [10]: 10 fold; Apparent Masking Efficiency [11]: 8 fold
5 | B5 | – | – | – | – | 17.5 nM | –
